In article PMC9712992:

Molecular target: D76N-β2-microglobulin (UniProt P61769)
Sequence of UniProt P61769 (P61769 other isoform, or with tags, fused parts or gaps D76N | D76N): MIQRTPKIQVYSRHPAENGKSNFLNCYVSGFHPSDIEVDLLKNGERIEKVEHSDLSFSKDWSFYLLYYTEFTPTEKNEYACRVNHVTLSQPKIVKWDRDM

- ThT fluorescence kinetics of seeded fibril growth of 20 μM D76N-β2m with 3% or 10% (w/w) fibril seeds and 10% (w/w) XL-Ds: fold increase in T (half): 1.6 fold
Substance: crosslinked dimers (XL-Ds) of D76N-β2m/S57C (from UniProt P61769 21-119) (complex)
